The values that follow come from patent US9091695B2, “Methods and systems for quantification of peptides and other analytes” (Laboratory Corporation of America Holdings, priority 2007, dated 2015).

The nature of data set [1]: Stock solution / internal standard solution storage stability. The class given is physicochemical.
The nature of data set [2]: Autosampler stability of calibrators and quality control samples. The format is physicochemical. To be noted: stored in the autosampler at 10° C. On the procedure: The autosampler stability was evaluated using calibrators and quality control samples (LLOQ, mid-range and ULOQ using both pooled plasma and blank plasma calibrators). Duplicate curves were included with the batch. The first calibration curve was injected, then after 24 hours, the remaining quality control and calibration curve samples were injected. Both calibration curves were used to ascertain accuracy of pooled patient and blank plasma controls. The acceptability criteria is defined such that the standard curve back-fit data should be 80-120% at LLOQ, 85-115% at other concentrations of expected curve values. Mean accuracy of each quality control sample should be ≦±20% at the LLOQ and ≦±15% at all other levels.

Turning to “pGlu-His-Trp-Ser-Tyr-Gly-Leu-Arg-Pro-Gly-NH2 [GnRH]”, the “Time stock solution is stable” value in data set [1] (frozen at −70° C.) is given as “up to 376 days”. Besides, the “Time stable in the autosampler” value in data set [2] was 24 h.
As for “[(U-23C9, 15N)-Tyr5], [(U-23C6, 15N)-Leu7], [(U-19C5, 15N)-Pro9]-Gonadorelin [GnRH internal standard]”, the “Time internal standard solution is stable” value in data set [1] (refrigerated at 4° C.) is on record as “up to 51 days”.
